Test results taken from patent publication US20200190204A1.

Molecular target: hBAFF-R-GFP fusion protein on mouse fibroblast L cells (clone D2C) (human) (UniProt Q96RJ3)
Assay: cell ELISA of hybridoma supernatant, anti-mouse IgG-HRP; same clone on parental L cell: 0.102

B1: mouse mAb Clone 55 (hybridoma) (antibody, V domains shown)
VH: QVTLKESGPGILKPSQTLSLTCSFSGFSLSTSGMGVGWIRQPSGKGLEWLAHIWWDDDKYYNSSLKSHLTISKDTSRNQVFLKITSVDTADTATYYCARSFGYGLDYWGQGTTLTVSS
VL: DIQMTQTTSSLSASLGDRVTISCSASQDISNYLNWYQQKPDGTVKLLIYYTSSLHSGVPSRFSGSGSGTDYSLTISSLEPEDIATYYCHQFSELPWTFGGGTKLEIKR
With B1 the OD 450 nm on (h)BAFF-R-expressing cells was 1.07 OD 450 nm.
